Holding throughout (assay): EMSA
On the technique in general: In EMSA bound probe runs differently from free probe, usually more slowly.

Series [1] has as its target SIM1;ARNT2 (SIM1 partner) (;, UniProt P81133;Q9HBZ2 1-348;1-455, |).
Series [2] concerns the target NPAS4;ARNT2 (NPAS4 partner) (mouse;mouse, UniProt Q8BGD7;Q61324 1-329;1-481, |).
For series [3], the target named is HIF2a;ARNT (HIFa partner) (human;human, UniProt Q99814;P27540 1-353;1-503, |).
In series [4] the target is HIF1a;ARNT (HIFa partner) (human?;human, UniProt Q16665;P27540 1-375;1-503, |).

Consider 3 molecules from paper doi:10.1101/2022.02.01.475276.

Chain of HIF2a;ARNT (HIFa partner) (Q99814 1-353, chain 1 of 2): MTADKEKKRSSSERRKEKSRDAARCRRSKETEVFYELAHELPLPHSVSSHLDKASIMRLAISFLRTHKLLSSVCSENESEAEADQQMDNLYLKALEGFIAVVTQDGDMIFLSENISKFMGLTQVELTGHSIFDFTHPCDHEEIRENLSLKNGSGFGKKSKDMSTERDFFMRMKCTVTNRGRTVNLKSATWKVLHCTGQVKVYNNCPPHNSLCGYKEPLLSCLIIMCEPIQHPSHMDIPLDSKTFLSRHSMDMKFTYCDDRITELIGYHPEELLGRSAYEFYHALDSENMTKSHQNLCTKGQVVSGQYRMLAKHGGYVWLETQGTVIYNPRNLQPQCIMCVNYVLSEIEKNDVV
Chain of HIF2a;ARNT (HIFa partner) (P27540 1-503, chain 2 of 2): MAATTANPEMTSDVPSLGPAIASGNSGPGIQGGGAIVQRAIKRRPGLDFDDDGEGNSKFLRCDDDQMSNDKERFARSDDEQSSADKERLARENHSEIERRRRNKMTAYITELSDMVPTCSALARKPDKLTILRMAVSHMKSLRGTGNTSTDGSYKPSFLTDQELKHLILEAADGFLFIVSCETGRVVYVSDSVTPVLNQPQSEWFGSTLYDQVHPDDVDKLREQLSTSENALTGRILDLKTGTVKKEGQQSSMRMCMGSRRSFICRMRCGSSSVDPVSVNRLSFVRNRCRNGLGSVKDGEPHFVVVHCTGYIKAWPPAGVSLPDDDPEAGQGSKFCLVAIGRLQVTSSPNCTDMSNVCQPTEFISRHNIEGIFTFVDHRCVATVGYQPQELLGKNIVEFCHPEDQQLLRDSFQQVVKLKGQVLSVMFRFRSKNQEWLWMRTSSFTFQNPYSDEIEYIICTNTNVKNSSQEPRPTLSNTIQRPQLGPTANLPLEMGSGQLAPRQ
Chain of NPAS4;ARNT2 (NPAS4 partner) (Q8BGD7 1-329, chain 1 of 2): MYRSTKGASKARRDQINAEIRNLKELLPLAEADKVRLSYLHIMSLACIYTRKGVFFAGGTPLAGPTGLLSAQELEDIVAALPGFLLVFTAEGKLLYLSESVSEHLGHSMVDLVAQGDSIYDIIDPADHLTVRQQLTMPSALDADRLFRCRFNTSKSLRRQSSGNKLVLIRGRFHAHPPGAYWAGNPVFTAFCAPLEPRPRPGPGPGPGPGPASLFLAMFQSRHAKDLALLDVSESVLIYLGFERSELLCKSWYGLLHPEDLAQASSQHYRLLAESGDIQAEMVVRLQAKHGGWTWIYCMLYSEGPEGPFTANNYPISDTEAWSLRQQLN
Chain of NPAS4;ARNT2 (NPAS4 partner) (Q61324 1-481, chain 2 of 2): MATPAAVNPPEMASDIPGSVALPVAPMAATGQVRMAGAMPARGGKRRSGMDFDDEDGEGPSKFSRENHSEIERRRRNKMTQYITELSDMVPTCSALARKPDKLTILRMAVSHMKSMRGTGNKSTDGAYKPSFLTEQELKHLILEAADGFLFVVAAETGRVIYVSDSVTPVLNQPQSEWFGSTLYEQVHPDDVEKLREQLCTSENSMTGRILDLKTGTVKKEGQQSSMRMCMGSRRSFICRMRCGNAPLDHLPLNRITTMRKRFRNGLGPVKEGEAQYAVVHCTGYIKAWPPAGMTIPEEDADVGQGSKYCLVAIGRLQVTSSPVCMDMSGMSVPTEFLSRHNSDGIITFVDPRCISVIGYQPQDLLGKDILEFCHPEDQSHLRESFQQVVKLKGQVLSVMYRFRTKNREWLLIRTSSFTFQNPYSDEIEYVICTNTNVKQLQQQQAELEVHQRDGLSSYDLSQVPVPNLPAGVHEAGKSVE
Chain of SIM1;ARNT2 (SIM1 partner) (P81133 1-348, chain 1 of 2): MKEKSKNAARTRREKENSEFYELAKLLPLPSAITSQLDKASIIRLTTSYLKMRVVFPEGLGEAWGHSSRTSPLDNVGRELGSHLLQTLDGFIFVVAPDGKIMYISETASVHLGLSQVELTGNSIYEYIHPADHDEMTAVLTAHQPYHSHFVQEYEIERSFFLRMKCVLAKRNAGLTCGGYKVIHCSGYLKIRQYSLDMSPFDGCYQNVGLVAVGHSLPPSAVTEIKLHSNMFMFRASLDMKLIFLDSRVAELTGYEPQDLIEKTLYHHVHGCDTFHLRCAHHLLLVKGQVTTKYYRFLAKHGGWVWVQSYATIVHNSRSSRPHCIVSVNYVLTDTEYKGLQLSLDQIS
Chain of SIM1;ARNT2 (SIM1 partner) (Q9HBZ2 1-455, chain 2 of 2): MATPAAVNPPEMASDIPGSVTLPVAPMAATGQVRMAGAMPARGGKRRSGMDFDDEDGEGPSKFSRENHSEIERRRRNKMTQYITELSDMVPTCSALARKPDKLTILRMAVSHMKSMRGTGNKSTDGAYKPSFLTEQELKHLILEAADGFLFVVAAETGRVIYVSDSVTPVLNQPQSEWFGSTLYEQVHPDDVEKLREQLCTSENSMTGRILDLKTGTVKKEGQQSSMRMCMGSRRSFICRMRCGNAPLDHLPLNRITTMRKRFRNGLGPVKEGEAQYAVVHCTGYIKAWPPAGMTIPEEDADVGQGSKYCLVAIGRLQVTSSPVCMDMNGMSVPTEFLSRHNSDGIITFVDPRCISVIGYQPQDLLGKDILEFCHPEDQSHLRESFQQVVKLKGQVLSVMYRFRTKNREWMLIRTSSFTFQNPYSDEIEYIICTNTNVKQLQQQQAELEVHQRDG
Chain of HIF1a;ARNT (HIFa partner) (P27540 1-503, chain 2 of 2, other chains not shown): as the sequence (P27540 1-503, chain 2 of 2) above

B1: SRE (dsDNA)
DNA 1: AAAAGGTACGTGACCAAAAAGA
DNA 2: TCTTTTTGGTCACGTACCTTTT
B1: the binding result in series [1] is “binds”.

B2: NRE (dsDNA)
DNA 1: AAATGAGTCGTGACCAAAAATT
DNA 2: AATTTTTGGTCACGACTCATTT
B2: the binding result in series [2] is reported as “binds”.

B3: HRE (C/C) (dsDNA)
DNA 1: AGGCTGCGTACGTGCGGGTCGT
DNA 2: ACGACCCGCACGTACGCAGCCT
For B3, the binding signal in series [3] was ~1 reference (HIF1a/ARNT about 2-fold higher); in series [4] it was ~2 fold higher affinity than HIF2a/ARNT.
